Laboratory results: patent US10772928B2, “Modulation and detection of a neuronal alternative splicing regulatory network for treatment and diagnosis of neurological disorders” (The Governing Council of the University of Toronto, priority 2014, dated 2020)

T1: nSR100 (Mus musculus, UniProt Q8BKA3)
T1 construct: host or cells: mouse N2A cells
T1 sequence (Q8BKA3 1-608): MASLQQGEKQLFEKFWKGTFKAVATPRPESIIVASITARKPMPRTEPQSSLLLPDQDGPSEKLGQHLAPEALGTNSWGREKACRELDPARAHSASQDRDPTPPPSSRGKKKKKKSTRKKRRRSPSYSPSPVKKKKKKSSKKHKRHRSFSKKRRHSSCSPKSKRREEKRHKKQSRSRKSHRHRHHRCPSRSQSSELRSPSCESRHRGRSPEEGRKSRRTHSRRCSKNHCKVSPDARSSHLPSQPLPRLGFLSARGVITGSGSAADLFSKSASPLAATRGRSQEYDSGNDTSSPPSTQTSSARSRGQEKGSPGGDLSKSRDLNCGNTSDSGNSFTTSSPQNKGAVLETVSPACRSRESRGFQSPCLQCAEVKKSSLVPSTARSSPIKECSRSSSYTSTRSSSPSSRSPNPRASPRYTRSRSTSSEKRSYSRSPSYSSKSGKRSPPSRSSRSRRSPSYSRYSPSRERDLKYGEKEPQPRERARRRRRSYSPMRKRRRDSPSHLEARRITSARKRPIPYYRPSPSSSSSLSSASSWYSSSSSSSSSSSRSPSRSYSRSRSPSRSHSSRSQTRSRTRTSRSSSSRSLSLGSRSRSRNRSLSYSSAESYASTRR


Molecular target: T1, nSR100
Experiment: AP-MS nSR100 interaction partners from mouse N2A cells (Table 5)
Assay type: binding
Details: for AvgP (average of the SAINT scores) / MaxP (maximal SAINT score): bait Srrm4; for FoldChange between the prey Avg spectra of the bait and control purifications: bait Srrm4, 0.1 added to prevent division by 0; for AvgSpec (average number of spectra per replicate): bait Srrm4, 2 replicates; for Spectra (number of spectra for the prey in the purification of the bait): AP-MS; for SpecSum: bait Srrm4, sum of spectra over 2 replicates
[1] = bait Srrm4, biological replicate 1 (first number of the cell)
[2] = bait Srrm4, biological replicate 2 (second number of the cell)

Description: By applying affinity purification coupled to mass-spectrometry (AP-MS), several interaction nSR100 partner proteins were detected that provide insight into mechanisms of post-translational regulation of nSR100 levels.

AvgP (average of the SAINT scores) | MaxP (maximal SAINT score) | FoldChange between the prey Avg spectra of the bait and control purifications | AvgSpec (average number of spectra per replicate) | Spectra (number of spectra for the prey in the purification of the bait) [1] | Spectra (number of spectra for the prey in the purification of the bait) [2] | SpecSum | Molecule
1 | 1 | 8.33 | 25 | 20 | 30 | 50 | Sf3a1 (protein, UniProt Q8K4Z5 1-791, looked up) Splicing factor 3A subunit 1: MQAGPVQAVPPPPPVATESKQPIEEEASSKEDPTPSKPVVGIIYPPPEVRNIVDKTASFVARNGPEFEARIRQNEINNPKFNFLNPNDPYHAYYRHKVSEFKEGKAQEPSAAIPKVMQQQQQATQQQLPQKVQAQVIQETIVPKEPPPEFEFIADPPSISAFDLDVVKLTAQFVARNGRQFLTQLMQKEQRNYQFDFLRPQHSLFNYFTKLVEQYTKILIPPKGLFSKLKKEAENPREVLDQVCYRVEWAKFQERERKKEEEEKEKERVAYAQIDWHDFVVVETVDFQPNEQGNFPPPTTPEELGARILIQERYEKFGESEEVEMEVESDEEDQEKAEETPSQLDQDTQVQDMDEGSDDEEEGQKVPPPPETPMPPPLPPTPDQVIVRKDYDPKASKPLPPAPAPDEYLVSPITGEKIPASKMQEHMRIGLLDPRWLEQRDRSIREKQSDDEVYAPGLDIESSLKQLAERRTDIFGVEETAIGKKIGEEEIQKPEEKVTWDGHSGSMARTQQAAQANITLQEQIEAIHKAKGLVPEDDTKEKIGPSKPNEIPQQPPPPSSATNIPSSAPPITSVPRPPAMPPPVRTTVVSAVPVMPRPPMASVVRLPPGSVIAPMPPIIHAPRINVVPMPPAAPPIMAPRPPPMIVPTAFVPAPPVAPVPAPAPMPPVHPPPPMEDEPPSKKLKTEDSLMPEEEFLRRNKGPVSIKVQVPNMQDKTEWKLNGQGLVFTLPLTDQVSVIKVKIHEATGMPAGKQKLQYEGIFIKDSNSLAYYNMASGAVIHLALKERGGRKK
1 | 1 | 11.92 | 71.5 | 70 | 73 | 143 | Sf1 (protein, UniProt Q64213 2-653, looked up) Splicing factor 1: ATGANATPLDFPSKKRKRSRWNQDTMEQKTVIPGMPTVIPPGLTREQERAYIVQLQIEDLTRKLRTGDLGIPPNPEDRSPSPEPIYNSEGKRLNTREFRTRKKLEEERHTLITEMVALNPDFKPPADYKPPATRVSDKVMIPQDEYPEINFVGLLIGPRGNTLKNIEKECNAKIMIRGKGSVKEGKVGRKDGQMLPGEDEPLHALVTANTMENVKKAVEQIRNILKQGIETPEDQNDLRKMQLRELARLNGTLREDDNRILRPWQSSETRSITNTTVCTKCGGAGHIASDCKFQRPGDPQSAQDKARMDKEYLSLMAELGEAPVPASVGSTSGPATTPLASAPRPAAPASNPPPPSLMSTTQSRPPWMNSGPSENRPYHGMHGGGPGGPGGGPHSFPHPLPSLTGGHGGHPMQHNPNGPPPPWMQPPPPPMNQGPHPPGHHGPPPMDQYLGSTPVGSGVYRLHQGKGMMPPPPMGMMPPPPPPPSGQPPPPPSGPLPPWQQQQQQPPPPPPPSSSMASSTPLPWQQNTTTTTTSAGTGSIPPWQQQQAAAAASPGTPQMQGNPTMVPLPPGVQPPLPPGAPPPPPCSIECLLCLLSSPNSLCLSPNRAARIPPRGSDGPSHESEDFPRPLVTLPGRQPQQRPWWTGWFGKAA

Further lines, the molecule ahead of its results:

Molecule | AvgP (average of the SAINT scores) | MaxP (maximal SAINT score) | FoldChange between the prey Avg spectra of the bait and control purifications | AvgSpec (average number of spectra per replicate) | Spectra (number of spectra for the prey in the purification of the bait) [1] | Spectra (number of spectra for the prey in the purification of the bait) [2] | SpecSum
Rbm25 (protein, UniProt B2RY56 1-838, looked up) RNA-binding protein 25: MSFPPHLNRPPMGIPALPPGIPPPQFPGFPPPVPPGTPMIPVPMSIMAPAPTVLVPTVSMVGKHLGARKDHPGLKLKENDENCGPTTTVFVGNISEKASDMLIRQLLAKCGLVLSWKRVQGASGKLQAFGFCEYKEPESTLRALRLLHDLQIGEKKLLVKVDAKTKAQLDEWKAKKKANGNARPETVTNDDEEALDEETKRRDQMIKGAIEVLIREYSSELNAPSQESDSHPRKKKKEKKEDIFRRFPVAPLIPYPLITKEDINAIEMEEDKRDLISREISKFRDTHKKLEEEKGKKEKERQEIEKERRERERERERERERREREREREREREREKEKERERERERDRDRDRTKERDRDRERDRDRDRERSSDRNKDRSRSREKSRDREREREREREREREREREREREREREREREREREKDKKRDREEDEEDAYERRKLERKLREKEAAYQERLKNWEIRERKKTREYEKEAEREEERRREMAKEAKRLKEFLEDYDDDRDDPKYYRGSALQKRLRDREKEMEADERDRKREKEELEEIRQRLLAEGHPDPDAELQRMEQEAERRRQPQIKQEPESEEEEEEKQEKEEKREEPVEEEEEPEQKPCLKPTLRPISSAPSVSSASGNATPNTPGDESPCGIIIPHENSPDQQQPEEHRPKIGLSLKLGASNSPGQPNSVKRKKLPVDSVFNKFEDEDSDDVPRKRKLVPLDYGEDDKNATKGTVNTEEKRKHIKSLIEKIPTAKPELFAYPLDWSIVDSILMERRIRPWINKKIIEYIGEEEATLVDFVCSKVMAHSSPQSILDDVAMVLDEEAEVFIVKMWRLLIYETEAKKIGLVK | 1 | 1 | 180 | 18 | 16 | 20 | 36
Rad23b (protein, UniProt P54728 1-416, looked up) UV excision repair protein …: MQVTLKTLQQQTFKIDIDPEETVKALKEKIESEKGKDAFPVAGQKLIYAGKILSDDTALKEYKIDEKNFVVVMVTKPKAVTTAVPATTQPSSTPSPTAVSSSPAVAAAQAPAPTPALPPTSTPASTAPASTTASSEPAPAGATQPEKPAEKPAQTPVLTSPAPADSTPGDSSRSNLFEDATSALVTGQSYENMVTEIMSMGYEREQVIAALRASFNNPDRAVEYLLMGIPGDRESQAVVDPPPQAVSTGTPQSPAVAAAAATTTATTTTTSGGHPLEFLRNQPQFQQMRQIIQQNPSLLPALLQQIGRENPQLLQQISQHQEHFIQMLNEPVQEAGSQGGGGGGGGGGGGGGGGGIAEAGSGHMNYIQVTPQEKEAIERLKALGFPEGLVIQAYFACEKNENLAANFLLQQNFDED | 1 | 1 | 35 | 3.5 | 3 | 4 | 7
